Results from patent US20240382628A1.

Target: CD11b on cells in whole blood (species not stated) (Homo sapiens (Human)) (UniProt P11215)
Experiment: adhesion of antibody-bearing backpacks to cells in whole blood

Q: Which % of CD14+ monocytes with adhered backpacks does the source give for “CD11b antibody (M1/70 clone, Biolegend Purified anti-mouse/human CD11b Antibody Cat #101201/101202), on polymeric particles (backpacks)” here?
A: 95%
